Target: thrombin (UniProt P00734;P00734 328-363;364-622)
Assay: SERS mapping on gold nanopillars; thrombin 0.0873-87.3 nM; complex bands 822, 1140, 1558 cm-1; no Kd given; Thiolated aptamer on gold-coated Si nanopillars, MCH passivation (stated for quadruplex control); PBS pH 7.4 listed; thrombin incubation buffer and temperature

GGTTGGTGTGGTTGG (structured_DNA, 5'-HS-(CH2)6 thiol linker (printed HS-(CH2)5-CH2-D/)) [TBA15 (thiolated thrombin-binding aptamer)]: binds.

From article PMC5884298
